Results taken from patent US20100029573A1 (IMMATICS BIOTECHNOLOGIES, published 2010).

How the values were obtained:
[1] = biological target: MHC-A*02 tetramers complexed with the peptide … (human); experiment: double tetramer staining, flow cytometry
[2] = biological target: T1, HLA-B*0702 (human); experiment: peptide-pulsed KM22 cells; recombinant B*0702 tetramers made with the peptide
T1 construct: MHC class I molecule without the peptide
Method: For the CTL assays, KM22 and JY tumor cell lines were used as target cells. Peptide-pulsed cells were pulsed with 50 μg/mL peptide for 2 hours. […] Then, 10⁴ cells/well were added to a 96-well round bottom plate. Various numbers of CTL were added to obtain an end volume of 200 μL, with subsequent incubation for 4 hrs at 37° C. Then, supernatants (500 μL/well) were harvested and counted in a beta-plate counter. Specific lysis was calculated in percent as follows: 100×(experimental release−spontaneous release/maximum release−spontaneous release). Each, spontaneous and maximum release were determined in presence of either medium or 2% Triton X-100.
Cell lines KM22 and JY are HLA-B*07 positive.

[3] = biological target: T1, HLA-B*0702; experiment: recombinant B*0702 complexed with peptide, tetramer and microspheres
Text: Predetermined avidity of human CD8 T cells expanded on calibrated MHC/anti-CD28-coated microspheres. J. Immunol. […] Each dot represents the percentage of tetramer+among CD8+ lymphocytes from one well.

Molecule | percent of stimulated cells binding the tetramer [1] [%] | other results
CD8-positive T cells stimulated with melan-A peptide/MHC-A*02 tetramer complexes | 19.3 | –
CD8-positive T cells stimulated with RGS-5 peptide …/MHC-A*02 tetramer complexes | 8 | –
FPSLREAAL (also called MAGEA1; MAGE-1) | – | binding result [2]: binds
IARNLTQQL (also called ADFP) | – | binding result [3]: binds
